Test [1] concerns the target T1, cynomolgus (cyno) MS4A4A (cynomolgus).
T1 construct: also called cy4A; Cyno 4A
The test can be described thus: FACS, HEK293, supernatant. The protocol: (§1) Positive clones identified above were expanded and then rescreened for specificity against HEK293 cells overexpressing human MS4A4A or cyno MS4A4A and parental HEK293 cells. These experiments were performed using supernatants from hybridoma clones which had undergone further expansion after initial selection. Briefly, previously prepared, cryopreserved transiently-transfected cells were labeled with LIVE/DEAD Fixable Aqua Dead Cell Stain Kit (ThermoFisher Scientific L34957) on ice for 30 minutes. After a wash with PBS, 2×10⁵ cells were aliquoted per well in 96-well U-bottom plates and incubated with 50 μl of culture supernatant on ice for 30 minutes. […] Following this secondary incubation, the cells were again washed twice with ice-cold FACS buffer and resuspended in a final volume of 200 μl of FACS buffer. Analysis was performed on a FACS Canto system (BD Biosciences), with sort gates drawn to exclude dead (Aqua-positive) cells. Positive clones (fold change of 1.8 or greater) were carried forward for further testing.
(In general: Flow cytometry measures light scatter and fluorescence of single cells or particles in a stream.)

The target of test [2] is T2, human MS4A4A (human, UniProt Q96JQ5 1-239). The test can be described thus: FACS, HEK293, supernatant. The protocol:
as §1

Test [3] addresses T3, BSA-conjugated human MS4A4A ECL2 peptide (amino acid residues 159-179) (human, conjugated to BSA (site not stated)).
T3 construct: also called MS4A4A-ECL2 BSA conjugated peptide; BSA-MS4A4A-ELC2 peptide
T3 peptide: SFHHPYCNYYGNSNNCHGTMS
The test can be described thus: ELISA, hybridoma supernatant. The protocol: (§2) Briefly, 96-well polystyrene plates were coated with 1-10 μg/ml of synthetic free or BSA-conjugated peptides in coating buffer (0.05M carbonate buffer, pH9.6, Millipore Sigma C3041) overnight at 4° C. Coated plates were then blocked with ELISA diluent (PBS+0.5% BSA+0.05% Tween20) for 1-hour, washed 3×300 μL in PBST (PBS+0.05% Tween20, Thermo Cat#28352), and then the antibodies were added to the plate (50 μl/ml). After 30 mins incubation (room temperature, with shaking), the plates were washed 3×300 μL in PBST. […] After a final set of washes (3×300 μL in PBST), 50 μL of TMB substrate (BioFx TMBW-1000-01) was added and the reaction was then quenched after 5-10 mins with 50 μL of stop solution (BioFx BSTP-1000-01). The quenched reaction wells were detected for absorbance at 650 nm with a BioTek Synergy Microplate Reader using GENS 2.04 software.
On the technique in general: An ELISA detects its analyte on a solid surface through an enzyme-linked reagent.

Test [4] concerns the target T4, human MS4A4A ECL1 peptide (amino acid residues 86-98) (human).
T4 construct: synthetic peptide
T4 peptide: CMASNTYGSNPIS
The test can be described thus: ELISA, hybridoma supernatant. As for the experimental part:
as §2

The target in test [5] is T5, human MS4A6A ECL2 peptide (amino acid residues 138-185) (human).
T5 peptide: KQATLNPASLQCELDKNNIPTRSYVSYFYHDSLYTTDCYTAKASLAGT
The test can be described thus: array SPR. As for the experimental part:
(§3) Binding kinetic characterization of the anti-MS4A4A antibodies to MS4A4A ECL1 and ECL2 and to MS4A6A ECL1 and ECL2 peptides was performed by Carterra (South San Francisco, Calif.) using a proprietary array Surface Plasmon Resonance (SPR) instrument (MX-96) as follows. Antibodies were captured onto a CMD500D chip (Xantec # SPMX CMD500D) using the Continous Flow Microspotter (CFM). First, the chip was activated with 100 mM MES pH 5.5, 100 μL EDC (133 mM final), 100 μL of S-NHS (33.3 mM final), for 7 minutes. […] Anti-MS4A4A hydridoma supernatant or purified anti-MS4A4A antibodies were diluted in HBS-EP+ buffer (Teknova Cat # H8022) and then printed as duplicates with a 20 minute and a 5-minute print from the same sample solution.
(§4) These were then injected on the chip for five minutes, followed by a seven-minute dissociation period at 8 uL per second in a non-regenerative kinetic series. Duplicate measurements for each anti-MS4A4A antibody were taken to ensure reproducibility. Association rates (Kon) and dissociation rates (Koff) were calculated using a single one-to-one Langmuir binding model. The equilibrium dissociation constant (KD) was calculated as the ration of Koff/Kon.

The target of test [6] is T6, human MS4A6A ECL1 peptide (amino acid residues 68-85) (human).
T6 peptide: SASFSPNFTQVTSTLLNS
The test can be described thus: array SPR. As for the experimental part:
as §3, §4

Test [7] has as its target T1, cynomolgus (cyno) MS4A4A. As to the kind of experiment: functional affinity, FACS titration on stably transfected 300.19 cells. As for the experimental part:
(§5) Determination of functional affinity/KD was carried out as follows. A constant number of 300.19 cells stably transfected with constructs expressing MS4A4A were blocked against non-specific binding, and then incubated with anti-MS4A4A antibodies at various concentrations predetermined to span from saturation-binding to no antibodies present for three hours on ice so the reaction is allowed to achieve near equilibrium. The cells were then washed and incubated with fluorophore-conjugated secondary antibodies, washed again, and signal determined by FACS Cantos (Becton Dickinson, Franklin Lake, N.J.). To determine functional/KD, the four-parameter dose response curve with variable slope was fitted onto the data by Prism (Graphpad, San Diego, Calif.), based on the multiple independent binding site model described by Drake and Klakamp, supra.

For test [8], the target named is T2, human MS4A4A. The description is as above. The protocol:
as §5

Test [9] concerns the target T4, human MS4A4A ECL1 peptide (amino acid …). The test can be described thus: peptide ELISA. The protocol:
as §2, with “[…]” for “1-10 μg/ml”, “Cat#C3041)” for “C3041)”, “μl/well).” for “μl/ml).”, “Cat#TMBW-1000-01)” for “TMBW-1000-01)”, “Cat#BSTP-1000-01).” for “BSTP-1000-01).”, “650nm” for “650 nm”

Test [10] deals with T7, human MS4A4A ECL2 peptide (amino acid residues 159-179), free (human).
T7 construct: synthetic peptide; also called huMS4A4A-ELC2 free-peptide
T7 peptide: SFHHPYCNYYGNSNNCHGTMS
As to the kind of experiment: peptide ELISA. As for the experimental part: as §2, with “[…]” for “1-10 μg/ml”, “Cat#C3041)” for “C3041)”, “μl/well).” for “μl/ml).”, “Cat#TMBW-1000-01)” for “TMBW-1000-01)”, “Cat#BSTP-1000-01).” for “BSTP-1000-01).”, “650nm” for “650 nm”

B1: anti-MS4A4A antibody 4A-12 (antibody, V domains shown)
VH: QVQLQQSGAELAQPGASVKMSCKASGYTFSSYWMYWVKQGPGQGLEWIGYINPGTGYTEYNQKFKDKATLTADKSSSTAYMQLSSLTSEDSAVYYCARFYYGSPYYYAMDYWGQGTSVTVSS
VL: DIVMTQSQKFMSTSVGDRVTFTCKASQSVDTDVAWYQQKPGQSPKLLIYSASNRYTGVPDRFTGSGSGTDFTLTISNVQSEDLADYFCHQYNSYPLTFGAGTKLELK
notes: murine hybridoma antibody
For the molecule B1, the “Cyno 4A:parental cell ratio” value in the test with cynomolgus (cyno) MS4A4A [1] is 3.96 ratio. Further, the “Human 4A:parental cell ratio” value with human MS4A4A [2] came to 9.58 ratio. Moreover, the binding result in test [3] is on record as “no binding”; in [4], “no binding”; in test [5], “no binding (tested: 2000 nM)”; in [6], “no binding (tested: 2000 nM)”.

B2: anti-MS4A4A antibody 4A-5 (antibody, V domains shown)
VH: EVKVEESGGGLVQPGGSMKLSCAASGFTFSDAWMDWVRQSPEKGLEWVAEIRSKTNSHATYYAESVKGRFTISRDDSKSSVYLQMNSLRAEDTGIYYCTVDYYGIFWGQGTLVTVSS
VL: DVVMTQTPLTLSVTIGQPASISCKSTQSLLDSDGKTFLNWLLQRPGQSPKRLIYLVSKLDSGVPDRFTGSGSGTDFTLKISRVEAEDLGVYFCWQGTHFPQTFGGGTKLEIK
notes: murine hybridoma antibody
For B2, the “Cyno 4A:parental cell ratio” value in the test with cynomolgus (cyno) MS4A4A [1] was found to be 8.49 ratio. Also, the “Human 4A:parental cell ratio” value in the test with human MS4A4A [2] was determined as 27.3 ratio. Also, the binding result in [3] is listed as “no binding”; in test [4], “no binding”; in test [5], “no binding (tested: 2000 nM)”; in [6] it was “no binding (tested: 2000 nM)”.

B3: anti-MS4A4A antibody 4A-18, huIgG1 chimera (antibody, V domains shown)
VH: QVQLQQPGTELVKPGASVKLSCKASGYTFTSYWIHWVKQRPGQGLEWIGNINPTNGGTNYNERFKSKATLTVDKSSSTAYMQLSSLTSEDSAVYYCARAYYYGSSLFAYWGQGTLVTVSA
VL: DIVMTQSQKFMSTTVGDRVSITCKASQNVGTAVAWSQQKPGQSPKLLIYSASYRHTGVPDRFTGSGSGTDFTLTITNMQSEDLADYFCQQYSTYPWTFGGGTKLEIK
notes: also called 4A-18 (hIgG1)
As a reminder, the Kd is the constant that tells how readily two partners part at equilibrium. A high value points to weaker binding. As to B3, the results for the Kd with cynomolgus (cyno) MS4A4A [7] and with human MS4A4A [8] were 3.1 nM and 0.84 nM, respectively.

B4: anti-MS4A4A antibody 4A-18 (murine) (antibody, IgG1, V domains shown)
VH: B3 VH
VL: B3 VL
notes: murine hybridoma antibody, msIgG1; also called 4A-18 (msIgG1)
B4: the binding result is reported as “no binding” in [9], “no binding” in [3], “no binding (tested: 2000 nM)” in test [5] and “no binding (tested: 2000 nM)” in test [6]. In the test with human MS4A4A [8], this molecule displayed a Kd of 1.6 nM.

B5: anti-MS4A4A antibody 4A-17 (antibody, V domains shown)
VH: QVQLQQSAAELMKPGASVKLSCKATGYTFTGYWIEWLKQRPGHGLEWIGEILPGIGNTKYSEKFKGKATFTADTSSNTAYMQLSSLTTEDSAIYYCARSLLRAMDYWGQGTSVTVSS
VL: QIVLTQSPAIMSASPGEKVTMTCSAISSISYMHWYQLKPGTSPKRWIYDTSKLASGVPARFSGSGSGTSYSLTISSMEAEDAATYYCHQRSSYPYTFGGGTKLEIK
notes: murine hybridoma antibody
Turning to B5, in the test with cynomolgus (cyno) MS4A4A [1], the “Cyno 4A:parental cell ratio” value was determined as 1.67 ratio. The “Human 4A:parental cell ratio” value with human MS4A4A [2] is 4.83 ratio. The binding result in test [3] is recorded as “no binding”; in [4] it was “no binding”; in test [5], “no binding (tested: 2000 nM)”; in test [6], “no binding (tested: 2000 nM)”.

B6: anti-MS4A4A antibody 4A-25 (antibody, V domains shown)
VH: QVTLKESGPGILQPSQTLSLTCSFSGFSLRTSDMGVGWVRQPSGEGLEWLADIWWDDNKYYNPSLKSRLTISKDTSSNQVFLKITSVDTADTATYYCARRANYGNLFDYWGQGTAVTVSS
VL: DIVMTQSLKFMSTSVGDRVSITCKASQNVRSAVAWYQQKPGQSPKVLIYWASNRHTGVPDRFTGSGSGTDFTLTISNVQSEDLADYFCLQHWNYLTFGSGTKLEIK
notes: purified murine antibody
On to B6, for which the binding result in [10] is listed as “binds”; in [9] it was “no binding”.

B7: anti-MS4A4A antibody 4A-21, huIgG1 chimera (antibody, V domains shown)
VH: QIQLVQSGPELKKPGETVKISCKASGYIFTSYGLSWVKQTPGKGLKWMGWINTYSGVPTYANDFKGRFAFSLETSASTTYLRINNLKNDDTATYFCARSLVDYWGQGTPLTVSS
VL: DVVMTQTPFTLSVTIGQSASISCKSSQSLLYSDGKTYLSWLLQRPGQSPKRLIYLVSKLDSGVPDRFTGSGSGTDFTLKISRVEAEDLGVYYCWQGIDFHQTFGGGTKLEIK
notes: also called 4A-21 (hIgG1)
Molecule B7 showed a Kd in the test with cynomolgus (cyno) MS4A4A [7] of 7.6 nM.

B8: anti-MS4A4A antibody 4A-202 (murine) (antibody, V domains shown)
VH: QVQLQQSGAELARPGASVKLSCKASGYTFTNYWMQWVKQRPGQGLEWIGATHPGHGDTRYTQKFKGKATLSADKSSSTAYMQLSNLASEDSAVYYCAREEVYYGFRSYWYFDVWGAGTTVTVSS
VL: not shown
notes: murine hybridoma antibody
As to B8, the binding result in test [10] is recorded as “binds”; in test [9], “no binding”.

B9: anti-MS4A4A antibody 4A-202, huIgG1 chimera (antibody, V domains shown)
VH: B8 VH
VL: not shown
B9: the Kd was determined as 1.8 nM with cynomolgus (cyno) MS4A4A [7] and 3.5 nM with human MS4A4A [8].
